In patent publication US6451762B1 (Novo Nordisk A/S, priority 1997, dated 2002):
Read-outs that look alike come from different tables or passages of the source.

Tests used:
[1] = Gel filtration on Sephacryl S-300 HR (aggregate formation, method 1); assay type: physicochemical; design: key to KAV: KAV=(VE-V0)/(VT-V0); fraction of available elution volume
[2] = Gel filtration method 2 on Superose 6HR (HPLC, 37° C.); assay type: physicochemical; conditions: 140 mM NaCl, 10 mM tris, pH 7.4
Method: An alternative method to measure the capability of insulin derivatives of forming soluble high molecular weight aggregates was developed, suitable for HPLC equipment. The column dimensions, injection volume, and flow rate correspond to the first method, whereas the temperature is increased to 37° C. and the phosphate buffer is changed to trishydroxymethylaminomethan hydrochloride and additional sodium chloride. The aggregated state of insulin is defined to elute before the gel filtration standard aldolase like in the first method.

[3] = Disappearance after subcutaneous injection in pigs
Source text: The gel filtration experiment using the conditions prescribed in this section is the direct physico-chemical method to reveal the potential aggregate formation property of an insulin derivative. Disappearance after subcutaneous injection in pigs reflects the combination of the albumin binding and polymer formation properties of the insulin derivative, besides a variety of biological factors.

Albumin [4] = target: T1, Albumin (Homo sapiens, UniProt P02768); test: Albumin binding constant; conditions: normalised using Lys^B29(N^ε tetradecanoyl) des(B30) human insulin as reference
Albumin [5] = target: T1, Albumin
[6] = Gel filtration on Sephacryl S-300 HR (aggregate formation, method 1); assay type: physicochemical; design: key to KAV: KAV=(VE-V0)/(VT-V0); fraction of available elution volume; conditions: for KAV: Sephacryl S-300 HR
Method: A pH neutral aqueous buffer system is used in the gel filtration and the insulin derivatives in the aggregated state are applied to the column in the form of a pharmaceutical preparation at a concentration of 600 nmol insulin/ml. […] However, when the actual state of aggregation in a pharmaceutical preparation is to be assessed, the medium of the preparation, exclusive the Zn^2+ which is insulin bound, is used as the eluent for the gel filtration. A column of 28×1 cm is eluted at a rate of 15 ml/h. Insulin derivatives were injected (200 μl) as a standard formulation comprising 600 μM derivative, 200 or 300 μM Zn^2+, 20 mM NaCl (or varied), 16 mM phenol, 16 mM m-cresol, 7 mM sodium phosphate at pH 7.5. Exclusion limit of Sephacryl® S-300 HR is stated by the manufacturer, Pharmacia, as a molecular weight of 1,500 kDa for globular proteins and 400 kDa for linear dextrans. In practice the elution of solutes of different size is characterised by the available volume as KAV values: KAV=(VE-V0)/(VT-V0) where VE is elution volume, V0 is void volume, e.g. elution volume of blue dextran, VT is total volume. Thus, the KAV value is independent of column dimension. […]

Human insulin [reference compound]
KAV ([1]; Sephacryl S-300 HR, pH 7.4 eluent, Zinc free): 0.72
KAV (Superose 6HR) 2Zn^2+/6 ins ([2]; 2 Zn2+/6 ins): 0.64
KAV (Superose 6HR) 3Zn^2+/6 ins ([2]; 3 Zn2+/6 ins): 0.64
Disappearance T50% ([3]; pigs, subcutaneous injection, normalised using Lys^B29(N^ε tetradecanoyl) des(B30) human insulin as reference): (2) h
Disappearance in pigs, T50% ([3]; pigs, subcutaneous, normalised to Lys^B29(N^ε tetradecanoyl-) des(B30) human insulin (T50% = 14.3 h)): 2 h
Albumin binding Kass (Albumin [4]): 0 (mol/l)^−1

Lys^B29(N^εω-carboxyheptadecanoyl) des(B30) human insulin
Albumin binding Kass (Albumin [5]): 25 × 10^5 (mol/l)^−1
formation of aggregates ([1]; gel filtration, absence of Zn2+ (0 Zn2+/hexamer)): aggregates are not formed
Disappearance T50% ([3]; pig, in vivo, sc): 18.7 h
KAV ([6]; eluent 125 mM NaCl, 20 mM sodium phosphate pH 7.4, sample 600 μM derivative, 200 μM Zn2+, 0-20 mM NaCl, phenol, m-cresol, pH 7.5): 0.05
KAV ([6]; medium of the preparation as eluent: 5 mM sodium phosphate pH 7.5, 10 mM NaCl, 16 mM phenol, 16 mM m-cresol, 1.6% glycerol, 2-3 Zn2+/hexamer): about 0.45
formation of high molecular weight soluble aggregates ([6]; gel filtration at neutral pH, formulation used (Table 1)): capable of forming high molecular weight soluble aggregates
degree of aggregation in the published formulation ([6]; medium of the preparation as eluent, 10 mM NaCl, 2-3 Zn2+/hexamer): no high molecular weight aggregates of insulin derivatives was present
